These are literature values, as cited in publication PMC3408481.

The target in one data set is VIP (Homo sapiens) (UniProt P01282).
Another data set concerns the target PACAP (Homo sapiens) (UniProt P18509).
Sequence of UniProt P18509 (P18509 82-129): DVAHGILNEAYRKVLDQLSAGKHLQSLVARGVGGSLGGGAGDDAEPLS

Sequence of UniProt P01282 (P01282 125-152): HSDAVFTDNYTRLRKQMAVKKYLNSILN

One may read the Kd as the free concentration of one partner at which half of the binding sites on the other are occupied at equilibrium, for simple one-to-one binding. With PAC1 receptor (from UniProt P41586), the figures for the Kd in the data set with VIP (Homo sapiens) and with PACAP (Homo sapiens) were 500 nM and 0.5 nM, respectively.
